A word on the Kd: it is the concentration at which binding is half-saturated. A higher Kd goes with weaker binding.

Where a chain is given by its changes, count along the chain named.

Drawing on US20240409617A1, this text covers Kd and Response for 20 molecules.

B1: Ab_18 scFv-Fc (scFv, V domains shown)
VH: EVQLVQSGGGVVQPGRSLRVSCAASGFSFSRYGMHWVRQAPGKGLEWVAFIRHDGSKKYYADSVEGRFTISRDNSRNTVSLEMNSLRGEDTAVYYCAKDGRLEAALDDWGQGTLVTVSS
VL: NFMLTQPHSMSGSAGKTVTVSCIRSSGSIANNFVQWYQQRPGSAPTTVIYEDNQRPSGVPDRFSGSIDSSSNSASLTISGLKTEDEADYYCQSYDSSNLVFGGGTRLTVL
B2: Ab_26 scFv-Fc (scFv, V domains shown)
VH: QVQLVQSGGGLVQPGRSLRLSCAASGFTFDDYAMHWVRQVPGKGLEWVSGIDWNSGVIGYADSVKGRFTISRDNAKNSLYLQMNSLRAEDTALYYCAKDAYSYGFLGAFDIWGQGTMVTVSS
VL: LPVLTQPPSVSVAPGQTASITCGGDNIRTKGVHWYQQKPGQAPLLVIYYASDRPSGIPERFSGSSSGNTATLTISRVEAGDEADYYCQVWDSSSDLVVFGGGTTLTVL
B3: Ab_23 scFv-Fc (scFv, V domains shown)
VH: EVQLVQSGAEVKKPGSSVKVSCRSSGGTFSTYGITWVRQAPGQGLEWMGRIIPSLGIPNYAQKFQGRVTITADTSVSTAWMELSSLESDDTAIYYCARENIDLATNDFWGQGTLVTVSS
VL: QSALTQPPSASGSPGQSVTISCTGTSRDIGAYGYVSWYQQVPGKAPKLIIYEVRNRPSGVSSRFSGSKSGNTASLTISGLQAEDEADYYCSSYTSSSTLDVVFGGGTKLTVL
B4: Ab_27 scFv-Fc (scFv, V domains shown)
VH: QVQLVQSGTEVKKPGASVKVSCKASGYSFTGSHLHWVRQAPGQGLEWMGWINPDSGVINYAQKFQGRVTLTRDTSISTAYMELSGLRSDDTAVYYCARDKAIGYVWALDYWGQGTLVTVSS
VL: QSALTQPPSVSGSPGQSVTISCTGTSSDVGTYNRVSWYQQPPGKAPKLMIYEVSNRPSGVSNRFSGSKSGNTASLTISGLQAEDEADYYCSSYTRTFTYVFGTGTKVTVL
B5: S1-R3-T1-C4 (Ab_8) scFv-Fc (scFv, V domains shown)
VH: QVQLVQSGAEVKKPGSSVKVSCKASGGTFSSYAISWLRQAPGQGLEWMGWINPNSGGTNYAQKFQGRVTMTRDTSISTAYMELSRLRSDDTAVYYCARGSGGYYLGWGQGTLVTVSS
VL: QPGLTQPPSVSKGLRQTATLTCTGNSNNVGNQGAAWLQQHQGHPPKLLSYMNNNRPPGISERFSASRSGNTASLTITGLQPEDEADYYCSAWDSSLSRWVFGGGTKLSVL
B6: Ab_19 scFv-Fc (scFv, V domains shown)
VH: EVQLVESGAEVKKPGESLKISCKGSGYSFTSYWIGWVRQMPGKGLEWMGIIYPGDSDTRYSPSFQGQVTISADKSISTAYLQWSSLKASDTAMYYCARRGDLDAFDIWGQGTMVTVSS
VL: QPGLTQPPAASGTPGQRVTVSCSGASANIGSNAVSWFKQFPETAPRLLISGNTHRPSGVPDRVSGSKSGTSASLTISGLQSDDEADYYCAAWDDSLNGYVFGSGTKVTVL
B7: S1-RBD-R3-T1-F5 (Ab2-7) scFv-Fc (scFv, V domains shown)
VH: QVTLKESGPTRVKPTQTLTLTCTFSGFSLSTTGVGVGWIRQPPGKALEWLALIYWNDDKRYSPSLKSRLTITKDTSKNQVVLTMTNMDPVDTATYYCARISGSGYFYPFDIWGQGTTVTVSS
VL: NFMLTQPHSVSESPGKTVTISCTRSSGSIASNYVQWYQQRPGSSPTTVIYEDNQRPSGVPDRFSGSIDSSSNSASLTISGLKAEDEADYYCQSYDSSSLWVFGGGTKLTVL
B8: Ab_28 scFv-Fc (scFv, V domains shown)
VH: QVTLKESGPGLVNPSETLSLTCTVSGASISNSFWSWIRQSPGKGLEWIGYTSYSGNSIYNPSLKSRLTMSIDTSKNQLSLNLRSLTAADTAVYYCARREWIKGHFDYWGQGTLVTVSS
VL: B7 VL with R24G, S26G, S44A, A83T, S98N, L99P, W100V
B9: Ab_25 scFv-Fc (scFv, V domains shown)
VH: QVQLVQSGGGLVQPGGSLRLSCAASGFTFSSYWMSWVRQAPGKGLEWVANIKQDGSEKYYVDSVKGRFTISRDNAKNSLYLQMNSLRAEDTAVYYCARGFYYYGAFDIWGQGTTVTVSS
VL: B7 VL with R24G, S44A, D68G, A83T, S98N, L99H
B10: Ab_13 scFv-Fc (scFv, V domains shown)
VH: B7 VH with T10K, R11L, T32S, N56D, T72A, N78Y, T117M, S122A
VL: B7 VL with S44A, A83T, S98N
B11: S1-RBD-R3-T1-C7 Ab (Ab_29) scFv-Fc (scFv, V domains shown)
VH: QVQLQQSGPGLVKPSQTLSLTCAISGDSVSSYSDAWNWIRQSPSRGLEWLGRTYYRSKWYNDYAVSVKSRITINPDTSKNQFSLQLSSVTPEDTAVYYCAREIVATTPFRNYYYGMDVWGQGTTVTVSS
VL: B7 VL with K16N, S25T, Y50F, E51Q, N53K, Q54L, A83T
B12: Ab_20 scFv-Fc (scFv, V domains shown)
VH: QVQLVQSGGGSVKPGGSLRLSCAASGYRLSDYYMHWVRQAPGKGLEWVANIKQDGSEKYYVDSVKGRFTISRDNAKNSLYLQMNSLRAEDTAVYYCARVRGWSRGYFDYWGQGTLVTVSS
VL: B7 VL with R24G, S44A, T77L, A83T, S98N, L99H
B13: Ab_16 scFv-Fc (scFv, V domains shown)
VH: QVQLVQSGGGVVQPGRSLRLSCAASGFTFSNYGMHWVRQAPGKGLEWVALIWERGSKKDYADSVKGRFTVSRDNSKNTLYLQMNSLRPEDTAVYFCAREGISMTGAEYFQHWGQGTLVTVSS
VL: QSVLTQPPSVSGSPGQRVTMSCTGSSSNIGAGYDVHWYQQVPGAAPRLLIYGTNNRPSGVPDRFSGSKSGTSASLTITGLQAEDEADYYCQSYDNSLTDPYVFGTGTKVTVL
B14: RBD-R3-E1-B3 Ab (Ab_32) scFv-Fc (scFv, V domains shown)
VH: QVQLVQSGAEVKKPGESLKISCKGSGYSFTSYWIGWVRQMPGKGLEWMGIIYPGDSDTRYSPSFQGQVTISADKSISTAYLQWSSLKASDTAMYYCARGWQWHDYWGQGTLVTVSS
VL: QTVVTQEPAVSVALGQTVRITCQGDSLRSYYASWYQQKPGQAPVLVVYDKDKRPSGIPDRFSGSTSGNTASLTITGAQAEDEADYYCNSRDRSDNHVVFGGGTKLTVL
B15: Ab_14 scFv-Fc (scFv, V domains shown)
VH: QVQLQQSGPGLVKPSQTLSLTCAISGDSVSSNSAAWNWIRQSPARGLEWLGRTYYRSRWYNDYAISMKSRITINPDTSKNQFSLQLESVTPEDTAVYYCAREIRGFDYWGQGTLVTVSS
VL: QSVLTQPPSASGSPGQSVTISCTGTSSDVGAYNFVSWYQHHPGKAPKLIIYDFNKRPSGVPDRFSGSKSGNTASLTVSGLQADDEADYYCSSYAGSNNFDVVFGGGTKLTVL
B16: Ab_21 scFv-Fc (scFv, V domains shown)
VH: QVQLVQSGGGLVQPGGSLRLSCATSGFTFDDYAMHWVRQAPGKGLEWVSGISWNSGSIGYVDSVKGRFTISRDNRNNKVYLQMNNLRAEDTAVYYCARDWWGSIDHWGLGTLVTVSS
VL: QSALTQPRSVSGSPGQSVTISCTGTSSDVGGYDYVSWYQQHPGKAPKLIIYDVSKRPSGVPDRFSGSKSGNTASLTVSGLQAEDEADYYCSSYTSSSPVVFGGGTKLTVL
B17: RBD-R3-E1-A5 Ab (Ab_30) scFv-Fc (scFv, V domains shown)
VH: QVQLVQSGGGVVQPGKSLRLSCTASGFTFSDFPIHWVRQAPGKGLEWVGVISYDGNIKYYGDSVKGRFTISRDNAKNSLYLQMNSLRVEDTAVYYCARGGSSFDIWGQGTTVTVSS
VL: SYELTQPPSVSEAPRQRVTISCSGSTSNIGNNAVSWYQHLPGKAPKLLIYYNERLPSGVSDRFSGSKSGTSASLAISGLRSEDEADYYCAAWDDSLSGHVVFGGGTKLTVL
B18: Ab_17 scFv-Fc (scFv, V domains shown)
VH: QVQLVQSGGGVVQPGRSLRLSCAASGFTFDDYAMHWVRQVPGKGLEWVSGIDWNSGVIGYADSVKGRFTISRDNVKNSLYLQMNSLRTEDSALYYCAKDIGPGGSGSYYAFDIWGQGTTVTVSS
VL: QSALTQPASVSGSPGQSITISCTGTSSDVGGSKYVSWYQQHPGKAPKVMIYDVTKRPSGVPDRFSGSKSGNTASLTISGLQAEDEADYYCAAWDDSLNGVVFGGGTKLTVL
B19: S1-RBD-R3-T1-B12 Ab (Ab_31) scFv-Fc (scFv, V domains shown)
VH: QVQLVQSGAEVKKPGSSVKVSCKASGGTFSSYTISWVRQAPGQGLEWMGGIIPILGTPNYAQKFQDRVAITADKSTSTAYMELSSLRSEDTAVYYCAVGSGWYSGFDYWGQGTLVTVSS
VL: NFMLTQPHSVSESPGKTVTISCTGSSGSIASNYVQWYQQRPGSAPTTVIYEDSQRPSGVPDRFSGSIDSSSNSASLTISGLKTEDEADYYCQSFHNSNPVIFGGGTKLTVL
B20: Ab 38 scFv-Fc (scFv, V domains shown)
VH: QVTLKESGPTLVKPTQTLTLTCTFSGFSLTTSGVSVGWIRQPPGKALEWLALIHWDDDKRYSPSLRSRLTITRDTSKNQVVLTVTDMDPADTGTYYCASFIMTVYAEYFEDWGQGTLVTVSS
VL: EIVLTQSPATLSVSPGERATLSCRASQSVSSNLAWYQQKPGQAPRLLMYDVSTRATGIPARFSGSGSGTEFSLTISSLQSEDFAVYYCQQRGAWPLTFGGGTKVEIK

In one experiment the target is WT Spike (SARS-CoV2).
The molecule B1 returned a Kd of 9.07 pM and a Response of 0.216.
The like results for B2 were, in that order, 11 pM and 0.185.
Consider B3, for which the Kd is 8.84 pM and the Response was 0.0845.
Molecule B4 gave a dissociation constant (Kd) of 8.78 pM and a Response of 0.202.
In turn, B5 yielded a Kd of 7.15 pM and a Response of 0.118.
For the molecule B6, the equilibrium dissociation constant (Kd) turned out to be 8.9 pM and the Response was 0.121.
The like results for B7 were, in that order, 7.85 pM and 0.0672.
The like results for B8 were, in that order, 8.9 pM and 0.132.
B9 yielded a dissociation constant (Kd) of 8.9 pM and a Response of 0.0219.
The like results for B10 were, in that order, 8.55 pM and 0.0732.
The matching figures for B11: 149 pM and 0.126.
The like results for B12 were, in that order, 9.01 pM and 0.0985.
B13: the Kd worked out at 11.8 pM and the Response amounted to 0.346.
Molecule B14 showed a Kd of 6.32 pM and a Response of 0.131.
In turn, B15 gave a dissociation constant (Kd) of 8.22 pM and a Response of 0.313.
The matching figures for B16: 9.25 pM and 0.147.
The like results for B17 were, in that order, 1.02 pM and 0.107.
The like results for B18 were, in that order, 6.35 pM and 0.248.
Molecule B19 came in with a Kd of less than 1 pM and a Response of 0.101.

Another experiment addresses WT Spike (SARS-CoV-2 spike protein) (SARS-CoV-2).
In turn, B20 returned an equilibrium dissociation constant (Kd) of 7.86 pM and a Response of 0.274.
